Measured values from US20230391844.

How the values were obtained:
[1] = system: mAb-PCL(15AA)-IL2-PCL(15AA)-IL2Rα
[2] = system: mAb-PCL(15AA)-IL2-PCL(20AA)-IL2Rα

Question: For “recombinant human uPA (R&D Cat #1310-SE)”, which “release of free IL2 after uPA digestion (reducing SDS-PAGE, western blot probed with biotinylated anti-hIL2)” value [1] is on record?
Answer: Its value is “Protease digestion of the IL2 proproteins with uPA resulted in the release of free IL2 from both IL2 proproteins”.

Question: What about the “release of free IL2 after uPA digestion (reducing SDS-PAGE, western blot probed with biotinylated anti-hIL2)” value [2] of the same substance?
Answer: Its value is “the IL2 proprotein construct comprising a 20AA linker between IL2 and IL2Rα domains displayed a more complete linker digestion and IL2 release relative to the construct comprising a 15AA linker between IL2 and IL2Rα”.
